Test results from patent US20230028899A1.

Biological target: CD19 on CD19+ Raji B cells (UniProt P15391)
Experiment: cell-based or functional assay

Sequence of UniProt P15391 (P15391 20-556 limits assumed): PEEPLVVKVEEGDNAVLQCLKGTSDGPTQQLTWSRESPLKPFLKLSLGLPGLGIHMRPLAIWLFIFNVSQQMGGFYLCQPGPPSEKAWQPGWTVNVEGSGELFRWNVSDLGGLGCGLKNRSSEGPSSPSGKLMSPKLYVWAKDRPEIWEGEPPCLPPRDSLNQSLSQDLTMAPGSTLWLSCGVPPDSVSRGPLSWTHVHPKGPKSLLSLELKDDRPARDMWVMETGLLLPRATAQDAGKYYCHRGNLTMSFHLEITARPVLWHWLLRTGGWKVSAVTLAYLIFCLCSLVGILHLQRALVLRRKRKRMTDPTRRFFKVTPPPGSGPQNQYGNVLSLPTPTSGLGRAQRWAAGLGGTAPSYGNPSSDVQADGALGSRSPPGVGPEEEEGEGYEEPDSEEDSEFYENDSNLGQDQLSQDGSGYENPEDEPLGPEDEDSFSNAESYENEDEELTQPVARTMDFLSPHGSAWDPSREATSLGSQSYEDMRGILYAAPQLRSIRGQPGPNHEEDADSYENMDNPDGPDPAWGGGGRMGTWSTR

Which GFP fluorescence of transduced T-cells (GFP-RDE1, MinP), 24 h co-culture, flow cytometry does the source give for “anti-CD19 CAR (anti-CD19 CAR cassette as described in WO 2012/079000), expressed on transduced CD4+ T-cells” here?
The GFP fluorescence of transduced T-cells (GFP-RDE1, MinP), 24 h co-culture, flow cytometry was 6.5%.

And the activated cells in the population (CD25/CD69 staining), 24 h co-culture, GFP-RDE1 construct?
The activated cells in the population (CD25/CD69 staining), 24 h co-culture, GFP-RDE1 construct was 0.9 to 84.8%.

And the activated cells in the population (CD25/CD69 staining), 24 h co-culture, GFP-RDE2.1 construct?
Its activated cells in the population (CD25/CD69 staining), 24 h co-culture, GFP-RDE2.1 construct is 3.9 to 12.1%.

And the fold change in IL-12 expression (ELISA), NFAT promoter, 3'-UTR not responsive to CAR stimulation?
Its fold change in IL-12 expression (ELISA), NFAT promoter, 3'-UTR not responsive to CAR stimulation is 50 fold.

And the fold change in IL-12 expression (ELISA), NFAT promoter, RDE1 (Gold1)?
The fold change in IL-12 expression (ELISA), NFAT promoter, RDE1 (Gold1) was 168 fold.

And the fold change in IL-12 expression (ELISA), minP promoter, RDE1 (Gold1)?
Its fold change in IL-12 expression (ELISA), minP promoter, RDE1 (Gold1) is 6.3 fold.

What about the fold increase in bioluminescence, MinP promoter, RDE1 of the same substance?
Its fold increase in bioluminescence, MinP promoter, RDE1 is 4.1 fold.

What about the fold increase in bioluminescence, MinP promoter, RDE2 of the same substance?
Its fold increase in bioluminescence, MinP promoter, RDE2 is 1.8 fold.

What about the fold increase in bioluminescence, MinP promoter, RDE3 of the same substance?
The fold increase in bioluminescence, MinP promoter, RDE3 was 1.4 fold.

What about the fold increase in bioluminescence, NFAT promoter, RDE1 of the same substance?
Its fold increase in bioluminescence, NFAT promoter, RDE1 is 8.5 fold.

And the fold increase in bioluminescence, NFAT promoter, RDE2?
Its fold increase in bioluminescence, NFAT promoter, RDE2 is 3.1 fold.

And the fold increase in bioluminescence, NFAT promoter, RDE3?
Its fold increase in bioluminescence, NFAT promoter, RDE3 is 1.3 fold.
